The values that follow come from doi:10.1101/2024.01.24.577129.

The target of this assay is RGY-hIgG1-34-1-2S (mouse | human | not stated). The experiment in a line: negative stain electron microscopy; antibody in solution diluted to 0.01 mg/ml in 25 mM HEPES, 100 mM NaCl, on carbon-coated grids, 0.75% uranyl formate.

B1: RGY-hIgG1-34-1-2S (antibody, V domains shown)
VH: EVQLQQSGAEFVRPGASVKLSCTASGFNLKDDYMFWVKQRPEQGLEWIGWIAPDNGDTEYASKFQGKATITADTSSNTAYVQLSSLTSEDTAVYYCTTWGYYSYVNYWGQGTTLTVSS
VL: DIQMTQSPSSLSASLGERVSLTCRASQDIGSNLNWLQQEPDGTIKRLIYATYSLDSGVPKRFSGSRSGSDYSLTISSLESEDFVDYYCLQYASSPYTFGGGTKLEIK
B1 yielded a stoichiometry N of 6.
